Experimental data reported in article PMC6157868, “Characterization of novel glycosyl hydrolases discovered by cell wall glycan directed monoclonal antibody screening and metagenome analysis of maize aerial root mucilage” (PLoS ONE, 2018).

Columns and labels:
[1] = biological target: T1, α-N-Arabinofuranosidase (FjArf51) (Flavobacterium johnsoniae, UniProt A5FF88); assay: 4-nitrophenol release at […] nm, Michaelis-Menten fit; type: biochemical; conditions: 30 °C, pH 7, 50 mM phosphate
T1 construct: gene Fjoh_3113; full-length codon-optimised synthetic gene, pET-28a(+), C-terminal 6xHis, E. coli BL21(DE3) pLysS, 75 kDa
T1 sequence (A5FF88 1-661): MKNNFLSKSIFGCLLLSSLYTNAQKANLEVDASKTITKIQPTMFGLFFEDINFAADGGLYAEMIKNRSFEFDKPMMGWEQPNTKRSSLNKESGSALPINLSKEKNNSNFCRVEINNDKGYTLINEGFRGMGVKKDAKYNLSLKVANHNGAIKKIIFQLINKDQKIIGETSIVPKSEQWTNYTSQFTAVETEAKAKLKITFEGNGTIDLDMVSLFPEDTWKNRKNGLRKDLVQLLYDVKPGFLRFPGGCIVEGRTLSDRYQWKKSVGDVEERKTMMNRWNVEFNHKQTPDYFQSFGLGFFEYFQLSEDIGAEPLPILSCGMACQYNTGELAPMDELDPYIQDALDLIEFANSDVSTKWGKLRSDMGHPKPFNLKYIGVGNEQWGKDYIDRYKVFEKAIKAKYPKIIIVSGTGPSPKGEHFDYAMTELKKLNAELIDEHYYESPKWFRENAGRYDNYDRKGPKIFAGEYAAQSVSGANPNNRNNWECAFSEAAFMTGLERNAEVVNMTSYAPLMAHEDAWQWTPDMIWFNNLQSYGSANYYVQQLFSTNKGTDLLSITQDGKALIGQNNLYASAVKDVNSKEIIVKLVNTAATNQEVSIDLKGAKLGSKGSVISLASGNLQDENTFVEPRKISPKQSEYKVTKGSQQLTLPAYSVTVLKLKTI

purified protein [2] = substrate: O=[N+]([O-])c1ccc(O[C@@H]2OC[C@@H](O[C@@H]3OC[C@@H](O[C@@H]4OC[C@@H](O)[C@H](O)[C@H]4O)[C@H](O)[C@H]3O)[C@H](O)[C@H]2O)cc1; assay: purified protein; type: biochemical, Spirosoma linguale; conditions: 30 °C, pH 6, 50 mM phosphate
purified protein [3] = substrate: O=[N+]([O-])c1ccc(O[C@@H]2OC[C@@H](O[C@@H]3OC[C@@H](O[C@@H]4OC[C@@H](O)[C@H](O)[C@H]4O)[C@H](O)[C@H]3O)[C@H](O)[C@H]2O)cc1; assay: purified protein; type: biochemical, Flavobacterium johnsoniae; conditions: 30 °C, pH 6, 50 mM phosphate
purified protein [4] = substrate: C[C@@H]1O[C@@H](Oc2ccc([N+](=O)[O-])cc2)[C@@H](O)[C@H](O)[C@@H]1O; assay: purified protein; type: biochemical, Spirosoma linguale; conditions: 30 °C, pH 5, 50 mM citrate-phosphate
purified protein [5] = substrate: O=[N+]([O-])c1ccc(O[C@@H]2O[C@H](CO)[C@@H](O)[C@H](O)[C@@H]2O)cc1; assay: purified protein; type: biochemical, Agrobacterium fabrum; conditions: 30 °C, pH 7, 50 mM phosphate
purified protein [6] = substrate: O=[N+]([O-])c1ccc(O[C@@H]2O[C@H](CO)[C@H](O)[C@H](O)[C@H]2O)cc1; assay: purified protein; type: biochemical, Agrobacterium fabrum; conditions: 30 °C, pH 7, 50 mM phosphate

O=[N+]([O-])c1ccc(O[C@@H]2OC[C@H](O)[C@H](O)[C@H]2O)cc1 [4NP-α-Ara]
Km [1]: 220 ± 87 µM

B1: Xylan β-1,4 Xylosidase (SlXyn39) (Spirosoma linguale DSM 74) (protein)
chain: MPLLRRFCLQTGHLSALFFGLVVSVAFGSIDSHAQTSPDKPVAIQVDLTKDKGPLKPIWAWFGYDEPNYTYMKDGRKLLTEISQLSKVPVNVRVHSLLVTGDGTAALKWGSTNAYTEDKAGNPIYNWTIIDKIFDTFIERGMKPIAQIGFMPEALSTKPQPYRHYWKPGDNYNDIYTGWAYPPKDYKKWSELVYQWVKHSVQRYGQKEVESWYWELWNEPNISYWKGTTEEYIKLYDYTADAVKRALPTAKIGGPEVTGPNWDVSEKFFRAFMDHVVKGTNAVTGKVGTPIDFITFHAKGAPKVVNGVVQMNMGTQLRDIDKGFAIVASYPSLKNLPIIIGESDPEGCAACSEDLHPQNAYRNGTMYSSYTAASFARKYDLAEARGVNLAGAVTWGFEFEDQAWFRGFRDLATNGVDKPVLNVFRMFGMMQGNRVAVNTDLAYNAKKIRDESVRGEPDINALATKDAQSASVMVWNYHDDNVQGPGSPVSLKINGLTAKKVWVQHYRIDQQFSNSYEVWKKMGSPKAPTAEQVAELEKAGQLQLLASPTWVTVEKGVLTMPFQLPRQGVSLVKVSW
notes: full-length codon-optimised synthetic gene, pET-28a(+), C-terminal 6xHis, E. coli BL21(DE3) pLysS, 65 kDa
Km (purified protein [2]): 80 ± 9 µM | kcat (purified protein [2]): 2.17 s⁻¹ | kcat/Km (purified protein [2]): 26900 M⁻¹ s⁻¹

B2: Oligosaccharide reducing end Xylanase (FjXyn8) (Flavobacterium johnsoniae UW101) (protein)
chain: MTVHHNITNGYLSKIHLLLLIFALIVPAFVISQNKKKIDRELKKPQYRNLFKEAGYSQDDIDKKLTKAYYDVFEGPDKVYFEEGDSLGYVSDVKNKDARTEGMSYGMMVAVQFNKKDVFDRLWRWSVKYMQHQDGPREGYFAWSVNPQTKKQNSAGSASDGELYYITSLLFASNKWGNDTGINYYKEARRILDAMWKKDGTGNIYNIINTEHKQISFVPEGGGYNWTDPSYHVPAFYEIWALYAKDGHEQFYKECAEVSRKFLHKACHPVTGLTSDYTEFNGEPHPTPWLPPGFRYDSWRVPMNIAMDYTWYGKDKEWQEDYAKRFQNFLRSKGLETYEDQFNLDGSTPEFILQAGPVKKLRHSIGLVGTAATASLVNKDKASIDFVHAVWNAKLEPYEDGYFDPYYDGLMYLFSLMHLSGNYQIIVPKG
notes: full-length codon-optimised synthetic gene, pET-28a(+), C-terminal 6xHis, E. coli BL21(DE3) pLysS, 50 kDa
Km (purified protein [3]): 790 ± 222 µM | kcat (purified protein [3]): 5.15 s⁻¹ | kcat/Km (purified protein [3]): 6530 M⁻¹ s⁻¹

B3: α-L-Fucosidase (SlFuc29) (Spirosoma linguale DSM 74) (protein)
chain: MKKQITSILFSLLVSTSALAQQHSEQNHDKYVWPKDELVKKKLANWQDIKFGLLMHWGTYSEWGVVESWSLCPEDEGWCERRGPYAANWFEYKKAYENLQTTFNPTKFNPERWANAAKGAGMKYVVFTTKHHDGFCMFDTKLTDYKITDKKTPFSSNPRSNVTKEILGAFRQQGFMVGTYFSKPDWHTEDYWWTYFPPKDRNVSYDPKKYPDHWKKFSDFTYNQIEELMTGYGNVDILWLDGGWVRPASTIDSTVSWQRTIPYSQDINMARIAGMARQHQPGLLVVDRTVSGEFENYVTPEQSIPDHYMPIPWESCITMGDSWSYIPKENFKPARKLVQTLVDIVAKNGNLLLNIAPGPDGEWHEEAYQRLQEIGKWITVNGESIYGTKPLAPYRQGQWAFTSNNKAVYASYLPSESEQQLPASISLPALTVAPNAKVTVLGASQALKLTKTKDGFSVVVPEKVRQQLAGQPVWVFKIG
notes: full-length codon-optimised synthetic gene, pET-28a(+), C-terminal 6xHis, E. coli BL21(DE3) pLysS, 55 kDa
Km (purified protein [4]): 580 ± 20 µM | kcat (purified protein [4]): 53.1 s⁻¹ | kcat/Km (purified protein [4]): 91800 M⁻¹ s⁻¹

B4: β-Mannosidase (AfMan2) (Agrobacterium fabrum str. C58) (protein)
chain: MISSSTPETVIDLAGLWHLASVEGDHATEISIPGDIHSALKNAAIIPDPYHGANEKAVQWVAQQDWIIERTFILDDAEASWYLDIDYLDTVAIVFVNDVPVLSADNCFRRYRPDISRAVRPGENTIRIHFHSNITAGAERQARQPFYIPYHPGNSPIANGNMLRKPQCHFGWDWNIAIAPLGLYGKILLKRLDTARIEHVVSSQHHVEGGVELHVAVTLFAEGPASLPVYLSLGDERLRLECGVGAGETVVRHVFFVENPDLWWPAGSGEQTLYKLTVELPDETVTRQIGFRTIELLTDKDEAGSRFAFRINGREIFCRGANWIPADALYSLTSREKTEDLLCSAVEANMNMIRVWGGGFYEEDWFYDLCDRLGLLVWQDFMFACNLYPCSEDFLDNVEHEVDYQVKRLSSHPSIALWCGDNELVGALTWFDESRNNRDRYLVAYDRLNRTIEKALKKATPEALWWPSSPASGYLDYGDAWHADGSGDMHYWSVWHENKSFDNYHQVKPRFCSEFGFQSYTSMPVIRTYAEDKDMNIASPVIELHQKNVGGNERIAGTMFRYFRFPRDFENFVYLSQVQQALAIRTAVDYWRSLKPHCMGTLYWQLNDTWPVASWSSLDYGGGWKALHYAARRFFQPVAVSAIPSADGRRVTFSMVNDTAEDVEIDMNIVALAMDGNRVPLKSANGTCTSDKAATLTDIDMDSLPDGAILAWNFIASNGMTGEGHHVRDTYKALELQPAGLEFSVGPLKNGQFEIDVTAAGLALFIMLEADQPGRYSDNLFDLAAGETRRIIFTPKGAGPQPHFRIFDLHTCQSSPNPGIETMRRKA
notes: full-length codon-optimised synthetic gene, pET-28a(+), C-terminal 6xHis, E. coli BL21(DE3) pLysS, 93 kDa
Km (purified protein [5]): 680 ± 219 µM | kcat (purified protein [5]): 1350 s⁻¹ | kcat/Km (purified protein [5]): 1.98e+06 M⁻¹ s⁻¹ | Km (purified protein [6]): 250 ± 62 µM | kcat (purified protein [6]): 269 s⁻¹ | kcat/Km (purified protein [6]): 1.08e+06 M⁻¹ s⁻¹
